The results in this text go back to the supplement of paper PMC9112550, “Optimization of the antimicrobial peptide Bac7 by deep mutational scanning” (BMC Biology, 2022).

In the data set the test system is Escherichia coli TOP10. Briefly: shrunken log2 fold change of peptide-encoding DNA abundance (4.5 h post-induction vs induction); higher = less antimicrobial activity (less host growth inhibition). The following applies: time post-induction: 4.5 h; library: site-saturation at positions 5, 18, 19, 20.
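Further: peptides expressed intracellularly from a pBAD plasmid library in pooled LB shake-flask culture, induced with 0.3% L-arabinose, DNA abundance read by NGS, three biological replicates, DESeq2 with apeglm shrinkage.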

Turning to RRIRMRPPRLPRPRPRPQRRPRP, the “shrunken log2 fold change” value was 0.799.

Regarding RRIRGRPPRLPRPRPRPCWKPRP, the “shrunken log2 fold change” value came out at 0.175.

For RRIRERPPRLPRPRPRPTLEPRP, the “shrunken log2 fold change” value was determined as 0.034.

RRIRIRPPRLPRPRPRPVPKPRP: the “shrunken log2 fold change” value worked out at 0.0597.

In the case of RRIRPRPPRLPRPRPRPARDPRP, the “shrunken log2 fold change” value was determined as 0.208.

With RRIRLRPPRLPRPRPRPYSGPRP, the “shrunken log2 fold change” value was -0.103.

Turning to RRIRMRPPRLPRPRPRPMNHPRP, the “shrunken log2 fold change” value is -0.129.

As to RRIRERPPRLPRPRPRPCYNPRP, the “shrunken log2 fold change” value is -0.137.

As to RRIRWRPPRLPRPRPRPVNYPRP, the “shrunken log2 fold change” value was -0.122.

With RRIRQRPPRLPRPRPRPGHNPRP, the “shrunken log2 fold change” value is 0.0106.

With RRIRGRPPRLPRPRPRPRVMPRP, the “shrunken log2 fold change” value worked out at 0.473.

For the sequence RRIRERPPRLPRPRPRPNTEPRP, the “shrunken log2 fold change” value came out at 0.0956.

Regarding RRIRDRPPRLPRPRPRPQYAPRP, the “shrunken log2 fold change” value is -0.101.

Turning to RRIRPRPPRLPRPRPRPQWYPRP, the “shrunken log2 fold change” value is -0.257.

In the case of RRIRYRPPRLPRPRPRPARTPRP, the “shrunken log2 fold change” value was -0.298.

For RRIRGRPPRLPRPRPRPYMEPRP, the “shrunken log2 fold change” value was -0.164.

Take RRIRIRPPRLPRPRPRPRQFPRP: the “shrunken log2 fold change” value was -0.112.

Consider RRIRRRPPRLPRPRPRPEDMPRP, for which the “shrunken log2 fold change” value was found to be 0.296.

On to RRIRMRPPRLPRPRPRPWYRPRP, for which the “shrunken log2 fold change” value is -0.277.

Turning to RRIRFRPPRLPRPRPRPMAPPRP, the “shrunken log2 fold change” value is 0.114.

Turning to RRIRHRPPRLPRPRPRPIGHPRP, the “shrunken log2 fold change” value is -0.0911.

With RRIRQRPPRLPRPRPRPETLPRP, the “shrunken log2 fold change” value is -0.0597.

With RRIRQRPPRLPRPRPRPYVQPRP, the “shrunken log2 fold change” value was -0.00748.

In the case of RRIRMRPPRLPRPRPRPAQPPRP, the “shrunken log2 fold change” value was determined as 0.586.

As for RRIRGRPPRLPRPRPRPDCNPRP, the “shrunken log2 fold change” value is 0.679.

Take RRIRPRPPRLPRPRPRPFPEPRP: the “shrunken log2 fold change” value was 0.0208.

Consider RRIRVRPPRLPRPRPRPPSPPRP, for which the “shrunken log2 fold change” value was 0.417.

With RRIRYRPPRLPRPRPRPGFTPRP, the “shrunken log2 fold change” value was -0.149.

In the case of RRIRGRPPRLPRPRPRPIGWPRP, the “shrunken log2 fold change” value was found to be 1.18.

Consider RRIRGRPPRLPRPRPRPGLKPRP, for which the “shrunken log2 fold change” value turned out to be 0.725.

As to RRIRRRPPRLPRPRPRPHMQPRP, the “shrunken log2 fold change” value turned out to be 0.0237.

In the case of RRIRPRPPRLPRPRPRPSHNPRP, the “shrunken log2 fold change” value was -0.645.

Consider RRIRVRPPRLPRPRPRPPMKPRP, for which the “shrunken log2 fold change” value was -0.117.

RRIRHRPPRLPRPRPRPYPKPRP: the “shrunken log2 fold change” value is -0.193.

For RRIRIRPPRLPRPRPRPDAPPRP, the “shrunken log2 fold change” value came out at 0.14.

In the case of RRIRHRPPRLPRPRPRPQSVPRP, the “shrunken log2 fold change” value was -0.267.

In the case of RRIRDRPPRLPRPRPRPSPSPRP, the “shrunken log2 fold change” value was -0.018.

For RRIRWRPPRLPRPRPRPNMGPRP, the “shrunken log2 fold change” value is -0.0382.

For the sequence RRIRDRPPRLPRPRPRPYMIPRP, the “shrunken log2 fold change” value is -0.587.

On to RRIRGRPPRLPRPRPRPPPWPRP, for which the “shrunken log2 fold change” value amounted to 1.41.

As to RRIRYRPPRLPRPRPRPEFSPRP, the “shrunken log2 fold change” value is -0.307.

Take RRIRCRPPRLPRPRPRPPHLPRP: the “shrunken log2 fold change” value was 0.079.

As for RRIRRRPPRLPRPRPRPNEFPRP, the “shrunken log2 fold change” value was -0.0247.

For the sequence RRIRYRPPRLPRPRPRPGSHPRP, the “shrunken log2 fold change” value is -1.48.

For RRIRDRPPRLPRPRPRPTQCPRP, the “shrunken log2 fold change” value was -0.0857.

As to RRIRRRPPRLPRPRPRPTCNPRP, the “shrunken log2 fold change” value worked out at 0.026.

As to RRIRERPPRLPRPRPRPVGAPRP, the “shrunken log2 fold change” value worked out at 0.392.

For the sequence RRIRKRPPRLPRPRPRPYHGPRP, the “shrunken log2 fold change” value is -0.000893.

Turning to RRIRIRPPRLPRPRPRPGTGPRP, the “shrunken log2 fold change” value was 0.0659.

On to RRIRHRPPRLPRPRPRPSTIPRP, for which the “shrunken log2 fold change” value was -0.0522.

Regarding RRIRHRPPRLPRPRPRPIIWPRP, the “shrunken log2 fold change” value is -0.145.

Consider RRIRHRPPRLPRPRPRPWITPRP, for which the “shrunken log2 fold change” value is -0.118.

With RRIRERPPRLPRPRPRPIYFPRP, the “shrunken log2 fold change” value was -0.378.

On to RRIRLRPPRLPRPRPRPHNMPRP, for which the “shrunken log2 fold change” value is -0.495.

On to RRIRARPPRLPRPRPRPYDSPRP, for which the “shrunken log2 fold change” value is -0.0577.

As for RRIRTRPPRLPRPRPRPCHWPRP, the “shrunken log2 fold change” value was -0.00233.

Take RRIRMRPPRLPRPRPRPPNKPRP: the “shrunken log2 fold change” value was found to be 0.604.

Take RRIRDRPPRLPRPRPRPAGMPRP: the “shrunken log2 fold change” value came out at 0.411.

As for RRIRARPPRLPRPRPRPREHPRP, the “shrunken log2 fold change” value was determined as 0.376.

Turning to RRIRMRPPRLPRPRPRPNHHPRP, the “shrunken log2 fold change” value is -0.592.

Consider RRIRWRPPRLPRPRPRPLNTPRP, for which the “shrunken log2 fold change” value is 0.0456.

RRIRDRPPRLPRPRPRPSSVPRP: the “shrunken log2 fold change” value was -0.0994.

On to RRIRFRPPRLPRPRPRPWMFPRP, for which the “shrunken log2 fold change” value is -0.451.

For RRIRRRPPRLPRPRPRPWLIPRP, the “shrunken log2 fold change” value was -0.319.

As to RRIRERPPRLPRPRPRPEKYPRP, the “shrunken log2 fold change” value was -0.534.

For RRIRCRPPRLPRPRPRPMLAPRP, the “shrunken log2 fold change” value came to 0.379.

With RRIRRRPPRLPRPRPRPKRVPRP, the “shrunken log2 fold change” value was 0.298.

On to RRIRSRPPRLPRPRPRPFWFPRP, for which the “shrunken log2 fold change” value is -0.113.

For the sequence RRIRFRPPRLPRPRPRPMHCPRP, the “shrunken log2 fold change” value is -0.253.

Regarding RRIRDRPPRLPRPRPRPGPKPRP, the “shrunken log2 fold change” value stood at 0.386.

On to RRIRPRPPRLPRPRPRPFMHPRP, for which the “shrunken log2 fold change” value was determined as 0.0361.

In the case of RRIRARPPRLPRPRPRPLLSPRP, the “shrunken log2 fold change” value came to 0.367.

In the case of RRIRTRPPRLPRPRPRPRHLPRP, the “shrunken log2 fold change” value was found to be 0.318.

On to RRIRQRPPRLPRPRPRPQMYPRP, for which the “shrunken log2 fold change” value was -0.0131.

For the sequence RRIRTRPPRLPRPRPRPQIKPRP, the “shrunken log2 fold change” value was -0.0374.

Consider RRIRYRPPRLPRPRPRPHRSPRP, for which the “shrunken log2 fold change” value is -0.017.

With RRIRHRPPRLPRPRPRPYRVPRP, the “shrunken log2 fold change” value was -0.0718.

Consider RRIRVRPPRLPRPRPRPPMRPRP, for which the “shrunken log2 fold change” value is 1.24.

Turning to RRIRERPPRLPRPRPRPHWYPRP, the “shrunken log2 fold change” value is -1.19.

For the sequence RRIRGRPPRLPRPRPRPFQCPRP, the “shrunken log2 fold change” value is -0.0282.

For the sequence RRIRPRPPRLPRPRPRPMMIPRP, the “shrunken log2 fold change” value came to 0.0824.

On to RRIRERPPRLPRPRPRPQKEPRP, for which the “shrunken log2 fold change” value was -0.0239.

RRIRTRPPRLPRPRPRPRFHPRP: the “shrunken log2 fold change” value stood at 0.192.

In the case of RRIRYRPPRLPRPRPRPGMPPRP, the “shrunken log2 fold change” value was -0.403.

Turning to RRIRGRPPRLPRPRPRPVIHPRP, the “shrunken log2 fold change” value was found to be 0.0507.

Take RRIRHRPPRLPRPRPRPYAQPRP: the “shrunken log2 fold change” value is -0.279.

As for RRIRERPPRLPRPRPRPSASPRP, the “shrunken log2 fold change” value was -0.13.

Take RRIRHRPPRLPRPRPRPCHAPRP: the “shrunken log2 fold change” value is -0.0924.

For RRIRYRPPRLPRPRPRPQYKPRP, the “shrunken log2 fold change” value is -0.179.

As to RRIRCRPPRLPRPRPRPILLPRP, the “shrunken log2 fold change” value is -1.03.

Consider RRIRIRPPRLPRPRPRPGEPPRP, for which the “shrunken log2 fold change” value is -0.0228.

As to RRIRQRPPRLPRPRPRPMWIPRP, the “shrunken log2 fold change” value was -0.146.

As for RRIRCRPPRLPRPRPRPFEVPRP, the “shrunken log2 fold change” value is -0.152.

For RRIRLRPPRLPRPRPRPIEPPRP, the “shrunken log2 fold change” value worked out at 0.144.

For the sequence RRIRMRPPRLPRPRPRPCHTPRP, the “shrunken log2 fold change” value came out at 0.0555.

For the sequence RRIRQRPPRLPRPRPRPTNVPRP, the “shrunken log2 fold change” value is -0.302.

RRIRFRPPRLPRPRPRPTTKPRP: the “shrunken log2 fold change” value was -0.167.

As for RRIRKRPPRLPRPRPRPPVHPRP, the “shrunken log2 fold change” value stood at 0.273.

Take RRIRGRPPRLPRPRPRPMVVPRP: the “shrunken log2 fold change” value was determined as 0.434.

Consider RRIRFRPPRLPRPRPRPQDRPRP, for which the “shrunken log2 fold change” value is -0.591.

On to RRIRQRPPRLPRPRPRPFQVPRP, for which the “shrunken log2 fold change” value amounted to 0.0303.

On to RRIRERPPRLPRPRPRPPPTPRP, for which the “shrunken log2 fold change” value came to 0.518.

Regarding RRIRWRPPRLPRPRPRPVEEPRP, the “shrunken log2 fold change” value came out at 0.0996.

RRIRVRPPRLPRPRPRPVMTPRP: the “shrunken log2 fold change” value stood at 0.0124.

For the sequence RRIRNRPPRLPRPRPRPQGTPRP, the “shrunken log2 fold change” value is -0.0148.

With RRIRCRPPRLPRPRPRPNEFPRP, the “shrunken log2 fold change” value stood at 0.159.

On to RRIRLRPPRLPRPRPRPKLPPRP, for which the “shrunken log2 fold change” value was determined as 0.492.

As for RRIRWRPPRLPRPRPRPGDIPRP, the “shrunken log2 fold change” value was -0.133.

Regarding RRIRYRPPRLPRPRPRPKMYPRP, the “shrunken log2 fold change” value is -1.46.

Consider RRIRIRPPRLPRPRPRPGLEPRP, for which the “shrunken log2 fold change” value is -0.0336.

As for RRIRIRPPRLPRPRPRPVCYPRP, the “shrunken log2 fold change” value was -0.633.

Turning to RRIRMRPPRLPRPRPRPTAQPRP, the “shrunken log2 fold change” value came to 0.819.

For RRIRCRPPRLPRPRPRPGPCPRP, the “shrunken log2 fold change” value came out at 0.0993.

Regarding RRIRFRPPRLPRPRPRPWTLPRP, the “shrunken log2 fold change” value is -0.259.

Take RRIRWRPPRLPRPRPRPVQRPRP: the “shrunken log2 fold change” value amounted to 0.257.

As to RRIRMRPPRLPRPRPRPMDHPRP, the “shrunken log2 fold change” value is -0.00783.

RRIRCRPPRLPRPRPRPMIKPRP: the “shrunken log2 fold change” value was -0.497.

As to RRIRKRPPRLPRPRPRPPMYPRP, the “shrunken log2 fold change” value was -0.0675.

Turning to RRIRMRPPRLPRPRPRPVIKPRP, the “shrunken log2 fold change” value is -0.0254.

As for RRIRKRPPRLPRPRPRPKSEPRP, the “shrunken log2 fold change” value came to 0.0409.

As for RRIRQRPPRLPRPRPRPKFAPRP, the “shrunken log2 fold change” value stood at 0.0489.

On to RRIRPRPPRLPRPRPRPEAQPRP, for which the “shrunken log2 fold change” value amounted to 0.904.

Turning to RRIRIRPPRLPRPRPRPQKIPRP, the “shrunken log2 fold change” value is -0.148.

As to RRIRCRPPRLPRPRPRPMRLPRP, the “shrunken log2 fold change” value was found to be 0.0914.

Turning to RRIRVRPPRLPRPRPRPQKEPRP, the “shrunken log2 fold change” value was -0.178.
